Experimental findings from article PMC8027542 are described below.

In one test the target is CD14 (UniProt P08571). Nature of the test: SPR; TLR2 or CD14 (ligands) immobilised on a CM5 chip; different SIC concentrations as analyte; 1:1 Langmuir fit. A general note: In SPR one partner is held on a chip, and binding of the other changes the refractive index at the surface.
The target of another test is TLR2 (UniProt O60603). Described as above.
Chain of UniProt O60603 (O60603 21-784): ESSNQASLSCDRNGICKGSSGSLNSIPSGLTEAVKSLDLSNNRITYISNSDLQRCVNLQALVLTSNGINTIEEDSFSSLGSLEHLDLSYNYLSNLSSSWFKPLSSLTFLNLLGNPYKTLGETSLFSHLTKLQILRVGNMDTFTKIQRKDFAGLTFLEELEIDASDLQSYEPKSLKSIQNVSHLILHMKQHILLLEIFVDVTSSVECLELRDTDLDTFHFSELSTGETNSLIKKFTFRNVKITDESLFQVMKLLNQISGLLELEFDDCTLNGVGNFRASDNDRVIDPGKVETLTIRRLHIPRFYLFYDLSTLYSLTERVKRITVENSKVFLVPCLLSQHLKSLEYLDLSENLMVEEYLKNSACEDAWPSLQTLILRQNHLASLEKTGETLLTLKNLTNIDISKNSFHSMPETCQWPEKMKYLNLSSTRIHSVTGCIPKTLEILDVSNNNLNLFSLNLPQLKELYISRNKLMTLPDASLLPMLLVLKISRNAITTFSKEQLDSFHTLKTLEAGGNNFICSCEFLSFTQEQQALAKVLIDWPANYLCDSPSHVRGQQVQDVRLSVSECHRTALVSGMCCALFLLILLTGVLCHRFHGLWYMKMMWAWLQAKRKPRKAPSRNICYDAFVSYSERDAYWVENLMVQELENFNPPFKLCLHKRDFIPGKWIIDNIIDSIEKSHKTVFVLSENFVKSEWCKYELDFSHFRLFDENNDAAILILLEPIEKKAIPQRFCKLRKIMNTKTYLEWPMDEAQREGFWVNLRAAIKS

Chain of UniProt P08571 (P08571 20-345): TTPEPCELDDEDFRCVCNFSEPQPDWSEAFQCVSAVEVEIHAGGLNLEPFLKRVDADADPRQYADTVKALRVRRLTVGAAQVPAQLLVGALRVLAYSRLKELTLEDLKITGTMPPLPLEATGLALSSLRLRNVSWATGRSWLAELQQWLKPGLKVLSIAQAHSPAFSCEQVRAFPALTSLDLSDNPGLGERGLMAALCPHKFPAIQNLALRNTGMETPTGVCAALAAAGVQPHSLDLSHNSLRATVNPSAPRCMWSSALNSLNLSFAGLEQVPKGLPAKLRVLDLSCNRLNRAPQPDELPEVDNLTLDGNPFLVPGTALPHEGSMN

On to “Streptococcal inhibitor of complement (SIC) from S. pyogenes M1 strain AP1 (natural protein)”, for which the Kd in the test with CD14 turned out to be 2.52 µM; with TLR2, 12.9 µM.

In general, Kd refers to the concentration at which binding is half-saturated. A higher Kd goes with lower affinity.
